B1: C-terminal domain of ARA55 (amino acids 251-444) (other)
chain: EKDGAPFCPECYFERFSPRCGFCNQPIRHKMVTALGTHWHPEHFCCVSCGEPFGDEGFHEREGRPYCRRDFLQLFAPRCQGCQGPILDNYISALSLLWHPDCFVCRECFAPFSGGSFFEHEGRPLCENHFHARRGSLCPTCGLPVTGRCVSALGRRFHPDHFACTFCLRPLTKGSFQERAGKPYCQPCFLKLFG
notes: also called ARA55251-444; C-terminus of ARA55
B2: Rb fragment (aa 371-928) ligated to the DBD of GAL4 (other)
chain: MKLLSSIEQACDICRLKKLKCSKEKPKCAKCLKNNWECRYSPKTKRSPLTRAHLTEVESRLERLEQLFLLIFPREDLDMILKMDSLQDIKALLTGLFVQDNVNKDAVTDRLASVETDMPLTLRQHRISATSSSEESSNKGQRQLTVSPHTPVRTVMNTIQQLMMILNSASDQPSENLISYFNNCTVNPKESILKRVKDIGYIFKEKFAKAVGQGCVEIGSQRYKLGVRLYYRVMESMLKSEEERLSIQNFSKLLNDNIFHMSLLACALEVVMATYSRSTSQNLDSGTDLSFPWILNVLNLKAFDFYKVIESFIKAEGNLTREMIKHLERCEHRIMESLAWLSDSPLFDLIKQSKDREGPTDHLESACPLNLPLQNNHTAADMYLSPVRSPKKKGSTTRVNSTANAETQATSAFQTQKPLKSTSLSLFYKKVYRLAYLRLNTLCERLLSEHPELEHIIWTLFQHTLQNEYELMRDRHLDQIMMCSMYGICKVKNIDLKFKIIVTAYKDLPHAVQETFKRVLIKEEEYDSIIVFYNSVFMQRLKTNILQYASTRPPTLSPIPHIPRSPYKFPSSPLRIPGGNIYISPLKSPYKISEGLPTPTKMTPRSRILVSIGESFGTSEKFQKINQMVCNSDRVLKRSAEGSNPPKPLKKLRFDIEGSDEADGSKHLPGESKFQQKLAEMTSTRTRMQKQKMNDSMDTSNKEEK
B3: PR-LBD (receptor, UniProt P06401 679-933, looked up)
chain: QDIQLIPPLINLLMSIEPDVIYAGHDNTKPDTSSSLLTSLNQLGERQLLSVVKWSKSLPGFRNLHIDDQITLIQYSWMSLMVFGLGWRSYKHVSGQMLYFAPDLILNEQRMKESSFYSLCLTMWQIPQEFVKLQVSQEEFLCMKVLLLLNTIPLEGLRSQTQFEEMRSSYIRELIKAIGLRQKGVVSSSQRFYQLTKLLDNLHDLVKQLHLYCLNTFIQSRALSVEFPEMMSEVIAAQLPKILAGMVKPLLFHKK
notes: domain: LBD; Control in the mammalian two-hybrid assay; the construct is not described
B4: VP16-ARA55: full-length ARA55 fused to the activation domain of VP16 (other)
chain: MPRSGAPKERPAEPLTPPPSYGHQPTGQSGESSGASGDKDHLYSTVCKPRSPKPAAPAAPPFSSSSGVLGTGLCELDRLLQELNATQFNITDEIMSQFPSSKVASGEQKEDQSEDKKRPSLPSSPSPGLPKASATSATLELDRLMASLPDFRVQNHLPASGPTQPPVVSSTNEGSPSPPEPTAKGSLDTMLGLLQSDLSRRGVPTQAKGLCGSCNKPIAGQVVTALGRAWHPEHFVCGGCSTALGGSSFFEKDGAPFCPECYFERFSPRCGFCNQPIRHKMVTALGTHWHPEHFCCVSCGEPFGDEGFHEREGRPYCRRDFLQLFAPRCQGCQGPILDNYISALSLLWHPDCFVCRECFAPFSGGSFFEHEGRPLCENHFHARRGSLCPTCGLPVTGRCVSALGRRFHPDHFACTFCLRPLTKGSFQERAGKPYCQPCFLKLFG
notes: Mammalian two-hybrid construct, expressed in DU145 cells
B5: AR-LBD (aa 590-918) ligated to transcriptional activator VP16 (receptor)
chain: GKQKYLCASRNDCTIDKFRRKNCPSCRLRKCYEAGMTLGARKLKKLGNLKLQEEGEASSTTSPTEETTQKLTVSHIEGYECQPIFLNVLEAIEPGVVCAGHDNNQPDSFAALLSSLNELGERQLVHVVKWAKALPGFRNLHVDDQMAVIQYSWMGLMVFAMGWRSFTNVNSRMLYFAPDLVFNEYRMHKSRMYSQCVRMRHLSQEFGWLQITPQEFLCMKALLLFSIIPVDGLKNQKFFDELRMNYIKELDRIIACKRKNPTSCSRRFYQLTKLLDSVQPIARELHQFTFDLLIKSHMVSVDFPEMMAEIISVQVPKILSGKVKPIYFH
notes: range 590-918; Mammalian two-hybrid construct, DU145 cells; also called pCMX-VP16-AR
B6: ARA70 (other, UniProt Q13772 1-614, looked up)
chain: MNTFQDQSGSSSNREPLLRCSDARRDLELAIGGVLRAEQQIKDNLREVKAQIHSCISRHLECLRSREVWLYEQVDLIYQLKEETLQQQAQQLYSLLGQFNCLTHQLECTQNKDLANQVSVCLERLGSLTLKPEDSTVLLFEADTITLRQTITTFGSLKTIQIPEHLMAHASSANIGPFLEKRGCISMPEQKSASGIVAVPFSEWLLGSKPASGYQAPYIPSTDPQDWLTQKQTLENSQTSSRACNFFNNVGGNLKGLENWLLKSEKSSYQKCNSHSTTSSFSIEMEKVGDQELPDQDEMDLSDWLVTPQESHKLRKPENGSRETSEKFKLLFQSYNVNDWLVKTDSCTNCQGNQPKGVEIENLGNLKCLNDHLEAKKPLSTPSMVTEDWLVQNHQDPCKVEEVCRANEPCTSFAECVCDENCEKEALYKWLLKKEGKDKNGMPVEPKPEPEKHKDSLNMWLCPRKEVIEQTKAPKAMTPSRIADSFQVIKNSPLSEWLIRPPYKEGSPKEVPGTEDRAGKQKFKSPMNTSWCSFNTADWVLPGKKMGNLSQLSSGEDKWLLRKKAQEVLLNSPLQEEHNFPPDHYGLPAVCDLFACMQLKVDKEKWLYRTPLQM
notes: also called AR associated protein ARA70
B7: VP16 vector (VP16 activation domain alone) (other)
chain: APPTDVSLGDELHLDGEDVAMAHADALDDFDLDMLGDGDSPGPGFTPHDSAPYGALDMADFEFEQMFTDALGIDEYGG
notes: Control of the mammalian two-hybrid assay; also called pCMX-VP16

Legend:
[1] = molecular target: T1, human androgen receptor (AR), full length (human, UniProt P10275 1-920); assay: assay not given
T1 construct: mature; Full-length AR as used in the co-immunoprecipitations; The ARA54 co-IP used anti-His.tag antibodies; also called wtAR; wild type AR
T1 sequence (looked up): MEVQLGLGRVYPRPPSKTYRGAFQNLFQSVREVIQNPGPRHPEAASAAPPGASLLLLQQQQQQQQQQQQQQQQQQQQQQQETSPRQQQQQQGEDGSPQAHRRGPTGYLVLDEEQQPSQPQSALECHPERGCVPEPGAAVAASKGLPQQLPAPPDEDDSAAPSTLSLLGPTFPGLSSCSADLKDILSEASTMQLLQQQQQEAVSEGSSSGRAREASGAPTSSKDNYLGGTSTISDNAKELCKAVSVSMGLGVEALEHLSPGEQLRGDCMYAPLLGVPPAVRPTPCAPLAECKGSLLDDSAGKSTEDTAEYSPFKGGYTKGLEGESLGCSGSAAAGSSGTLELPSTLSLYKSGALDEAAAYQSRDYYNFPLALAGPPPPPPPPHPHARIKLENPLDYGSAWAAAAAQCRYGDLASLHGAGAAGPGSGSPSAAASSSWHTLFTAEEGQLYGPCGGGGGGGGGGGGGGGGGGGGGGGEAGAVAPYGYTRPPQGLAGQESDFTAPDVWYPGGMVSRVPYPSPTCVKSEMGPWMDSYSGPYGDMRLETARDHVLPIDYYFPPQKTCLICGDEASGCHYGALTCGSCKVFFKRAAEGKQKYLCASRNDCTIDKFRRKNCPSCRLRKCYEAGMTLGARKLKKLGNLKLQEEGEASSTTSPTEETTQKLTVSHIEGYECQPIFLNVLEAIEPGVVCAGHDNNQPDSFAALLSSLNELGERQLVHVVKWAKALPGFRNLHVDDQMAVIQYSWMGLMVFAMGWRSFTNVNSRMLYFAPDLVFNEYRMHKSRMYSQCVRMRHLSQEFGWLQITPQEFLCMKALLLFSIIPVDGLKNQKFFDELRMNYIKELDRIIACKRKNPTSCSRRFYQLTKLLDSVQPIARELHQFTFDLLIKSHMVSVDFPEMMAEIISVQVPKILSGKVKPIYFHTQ

[2] = molecular target: T2, near full-length AR (nAR, aa 36-918) ligated to transcriptional activator VP16 (human, UniProt P10275 36-918); assay: cell-based or functional assay
T2 sequence: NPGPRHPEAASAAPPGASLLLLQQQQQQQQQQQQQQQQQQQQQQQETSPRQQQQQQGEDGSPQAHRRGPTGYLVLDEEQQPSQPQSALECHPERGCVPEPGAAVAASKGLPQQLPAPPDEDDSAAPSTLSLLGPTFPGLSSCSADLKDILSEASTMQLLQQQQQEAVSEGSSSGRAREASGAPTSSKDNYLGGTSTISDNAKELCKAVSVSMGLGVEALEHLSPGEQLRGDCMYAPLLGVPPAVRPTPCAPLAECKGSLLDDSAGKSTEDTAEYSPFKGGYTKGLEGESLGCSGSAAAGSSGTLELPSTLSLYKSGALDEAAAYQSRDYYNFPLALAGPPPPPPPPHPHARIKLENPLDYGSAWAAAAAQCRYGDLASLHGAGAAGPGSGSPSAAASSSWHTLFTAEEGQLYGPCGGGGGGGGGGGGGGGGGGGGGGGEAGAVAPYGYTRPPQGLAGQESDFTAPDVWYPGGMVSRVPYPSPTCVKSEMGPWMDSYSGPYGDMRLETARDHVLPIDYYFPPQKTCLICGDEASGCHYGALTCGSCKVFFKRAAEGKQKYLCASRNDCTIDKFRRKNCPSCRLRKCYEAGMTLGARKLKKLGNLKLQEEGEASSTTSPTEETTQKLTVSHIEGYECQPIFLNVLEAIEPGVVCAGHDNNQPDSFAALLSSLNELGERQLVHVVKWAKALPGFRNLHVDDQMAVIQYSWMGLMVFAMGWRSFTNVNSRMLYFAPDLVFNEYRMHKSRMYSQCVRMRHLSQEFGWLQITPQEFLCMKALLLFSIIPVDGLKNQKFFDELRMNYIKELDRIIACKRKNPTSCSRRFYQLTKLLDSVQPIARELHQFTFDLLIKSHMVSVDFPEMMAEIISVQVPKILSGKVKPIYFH

[3] = molecular target: T2, near full-length AR (nAR, aa 36-918) …; assay: mammalian two-hybrid, CAT reporter, DU145 cells
[4] = molecular target: T3, GAL0 empty vector (GAL4 DBD alone) (UniProt P04386 1-147); assay: mammalian two-hybrid, CAT reporter, DU145 cells
T3 construct: range 1-147; Control of the mammalian two-hybrid assay; also called pGAL0

[5] = molecular target: B2; assay: mammalian two-hybrid, CAT reporter, DU145 cells
[6] = molecular target: T1, human androgen receptor (AR), full …; assay: cell-based or functional assay
[7] = molecular target: T4, GAL0AR: hormone binding domain of wtAR fused to the GAL4 DBD (human, UniProt P04386 1-147; P10275 625-920); assay: mammalian two-hybrid, CAT reporter, DU145 cells
T4 construct: range 1-147;domain: hinge and LBD; also called pGAL0-AR (wild-type); GAL4DBD fused to E region of human AR

Does B1 bind [1]?
Result: binds

With B2 as the binder, how does the “CAT activity, mammalian two-hybrid system in DU145 cells” value [2] read?
Its value is 3 fold.

Does B3 bind [3]?
Result: no binding

Does B4 bind [4]?
Result: no binding

Does B5 bind [5]?
Result: no binding

B6 was tested. Which “induced CAT activity in mammalian two-hybrid assay” value [6] did it give?
Its value is 12 fold.

Does B6 bind [5]?
Result: no binding

Does B7 bind [7]?
Result: no binding
